Reference: publication PMC7415566 (Structure (London, England : 1993), 2020)
Changes are numbered by the printed parent chain. Numbers in names are those of the source.

T1: FAM46C E166Q/F193D/F206D (residues 16-350) (human, UniProt Q5VWP2 16-350, E166Q | F193D | F206D)
T1 sequence (looked up): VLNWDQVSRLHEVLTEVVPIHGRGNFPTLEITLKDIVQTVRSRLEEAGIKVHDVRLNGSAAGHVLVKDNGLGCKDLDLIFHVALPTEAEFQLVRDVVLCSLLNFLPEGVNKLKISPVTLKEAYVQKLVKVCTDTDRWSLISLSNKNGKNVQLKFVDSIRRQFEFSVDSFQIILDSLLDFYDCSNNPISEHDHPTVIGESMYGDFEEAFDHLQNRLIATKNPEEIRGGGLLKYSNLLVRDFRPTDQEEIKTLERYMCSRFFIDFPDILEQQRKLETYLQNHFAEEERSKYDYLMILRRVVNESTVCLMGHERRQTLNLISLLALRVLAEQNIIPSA

T2: human FAM46C (residues 16-358), NTase domain (human, UniProt Q5VWP2 16-358)
T2 sequence (looked up): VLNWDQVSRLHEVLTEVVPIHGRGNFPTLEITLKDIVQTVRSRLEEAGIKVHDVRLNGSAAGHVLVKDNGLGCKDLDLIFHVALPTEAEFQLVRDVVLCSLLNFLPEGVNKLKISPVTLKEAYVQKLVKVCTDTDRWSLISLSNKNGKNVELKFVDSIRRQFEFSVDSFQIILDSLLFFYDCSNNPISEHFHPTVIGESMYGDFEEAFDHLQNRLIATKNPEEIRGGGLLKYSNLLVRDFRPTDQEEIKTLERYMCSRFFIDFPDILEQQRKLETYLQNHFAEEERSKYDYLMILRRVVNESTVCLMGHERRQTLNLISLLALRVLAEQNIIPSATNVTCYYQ

T3: GST-tagged FAM46D (residues 7-340) (human, UniProt Q8NEK8 7-340)
T3 sequence (looked up): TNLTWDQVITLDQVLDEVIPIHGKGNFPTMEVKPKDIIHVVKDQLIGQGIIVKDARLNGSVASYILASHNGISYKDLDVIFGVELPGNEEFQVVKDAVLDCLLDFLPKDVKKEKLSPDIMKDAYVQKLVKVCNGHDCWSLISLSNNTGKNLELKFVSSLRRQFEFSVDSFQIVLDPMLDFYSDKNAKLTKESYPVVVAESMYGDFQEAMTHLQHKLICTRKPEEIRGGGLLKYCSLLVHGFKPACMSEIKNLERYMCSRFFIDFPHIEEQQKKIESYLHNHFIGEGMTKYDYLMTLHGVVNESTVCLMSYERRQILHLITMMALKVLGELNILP

T4: GST-tagged FAM46C (residues 16-358) (human, UniProt Q5VWP2 16-358)
T4 sequence (looked up): T2 sequence (looked up)

B1: CPB1-2 of human PLK4 (residues 580-810) (domain or fragment, UniProt O00444 580-810, looked up)
chain: WGYQNRTLRSITSPLVAHRLKPIRQKTKKAVVSILDSEEVCVELVKEYASQEYVKEVLQISSDGNTITIYYPNGGRGFPLADRPPSPTDNISRYSFDNLPEKYWRKYQYASRFVQLVRSKSPKITYFTRYAKCILMENSPGADFEVWFYDGVKIHKTEDFIQVIEKTGKSYTLKSESEVNSLKEEIKMYMDHANEGHRICLALESIISEEERKTRSAPFFPIIIGRKPGST
B2: CPB1-2 of human PLK4 (residues 580-810) N669R (domain or fragment, UniProt O00444 580-810, looked up)
chain: B1 chain with N90R

Experiments:
[1] = molecular target: T1, FAM46C E166Q/F193D/F206D (residues …); assay: crystal structure
[2] = molecular target: T2, human FAM46C (residues 16-358), NTase …; assay: crystal structure
[3] = molecular target: T3, GST-tagged FAM46D (residues 7-340); assay: pull-down
[4] = molecular target: T4, GST-tagged FAM46C (residues 16-358); assay: pull-down

Binder	binding result [1]	binding result [2]	binding result [3]	binding result [4]
B1	binds	binds	binds	binds
B2	–	–	–	binds
